Measured values reported in PMC5915351.

B1: BmbD (YcaO protein, thiazoline-forming), maltose-binding protein fusion (enzyme)
chain: MREATATECELREVVHRSYPSERTVTVRCTVRPAEGSAQADGYGTATTEAVARAKALSEAVERLVACTPFATVARPPTACADPGTGSGPVPPFPAAGVRTAPEGCAGRVYRPLTGGGPRRVPLYWSSPWTAGAELRAGTLTAAEARLSSTVGWAVAPTPEGALRGALLELTELIDYGVFLHRRLAGPARRPSAGDRTLVVPLGGIGRTPAVLAVAYGRGRLMPATGLGCGATRGEATDRALLELAQAETMWRSNPTAEPAERFFLRRFERWPLLARCATLDFDLPDPRDPPARSGPAGGPGPYDDGPCPASPLEELEAGGIRVWADSGAVDISGPDIPRTRLCFAHVVSDPQPLLGLVRAGIPVFDTGEVRRTLDPSRRPADRPADRGGHRDRSADRGPARRGHEGRRSA
B2: BmbE (YcaO protein, macrolactamidine-forming), maltose-binding protein fusion (enzyme)
chain: MTRPADPQTAPQTEAATETDPLTAVLLDGATKEDVPPERETDIRQALASVGDWLAAEGLTADIRKYGIESAPTYEVRLSEASGALCSRSSGKGLGHRSMASALFESAEHYHLDWRRDPRASEAEFRPGREIAEQATARRSALLGRLGQIMPDAPVLTRTYRPVEEALTGRAGDGEADGPHRHPVFLRDGGYRNWPHPDDDRSFQPLWHYTSSAGYAAGATRHEALVHAVNELIERDAWSYQLARSYFGLPGEGPELRVVEHGTLPAELRELTRTVEEVRGAPVLIVDITCDTGVPAYVVCDARSREDVRLIGSGASPVRTYAVQRALLEYLQVRTMFENGPVDADTEAGQIGTALARYPRHLAAARFDIHRLPHESTAFEADDGLPAATGPERLLRHLVDRLRESGVEAHHRVLTPPGPVTVVDVVAPGLEMFDKARAGYPVLPTGRLGERLRPRGDGGGARR

The molecules below were run against BmbC-C8S/S43C, fluorescein-labelled (bottromycin precursor peptide double variant) (Streptomyces bottropensis) (assay: fluorescence polarisation).
For “RRE domain excised from BmbB (radical-SAM methyltransferase) (domain or fragment)”, the Kd was 0.876 µM.
With “RRE domain excised from BmbF (radical-SAM methyltransferase) (domain or fragment)” the Kd was 0.597 µM.
Work on B1 yielded a Kd of over 50 µM.
Work on B2 yielded a Kd of over 50 µM.
